Test results as given in patent US8822645B2, “Prostaglandin E2 dual variable domain immunoglobulins and uses thereof” (AbbVie Inc., priority 2008, dated 2014).

Legend:
[1] = tested on: stable cell lines overexpressing a cell-surface antigen of interest or human tumor cell lines; experiment: Flow cytometry (FACS) binding to cell surface antigen; assay type: cell-based; details: IL-6R VD in N-terminal position; 2 μg/mL
Method: Stable cell lines overexpressing cell-surface antigen of interest or human tumor cell lines were harvested from tissue culture flasks and resuspended in phosphate buffered saline (PBS) containing 5% fetal calf serum (PBS/FCS). Prior to staining, human tumor cells were incubated on ice with human IgG at 200 μg/ml in PBS/FCS. 1-5×10^5 cells were incubated with antibody or DVD-Ig (1-2 μg/mL) in PBS/FCS for 30-60 minutes on ice. […] After 30 minutes incubation on ice, cells were washed twice and resuspended in PBS/FCS. Fluorescence was measured using a Becton Dickinson FACSCalibur (Becton Dickinson, San Jose, Calif.).
Stable cell lines overexpressing a cell-surface antigen of interest or human tumor cell lines were harvested from tissue culture flasks and resuspended in phosphate buffered saline (PBS) containing 5% fetal bovine serum (PBS/FBS). Prior to staining, human tumor cells were incubated on ice with (100 μl) human IgG at 5 μg/ml in PBS/FCS. 1-5×10^5 cells were incubated with antibody or DVD-Ig (2 μg/mL) in PBS/FBS for 30-60 minutes on ice. […] After 30 minutes incubation on ice, cells were washed twice and resuspended in PBS/FBS. Fluorescence was measured using a Becton Dickinson FACSCalibur (Becton Dickinson, San Jose, Calif.).
The geometric mean is the n root of the multiplication product of n fluorescent signals (a1×a2×a3 . . . an). […]

target antigen = experiment: BIACORE affinity determination of parent antibodies and DVD-Ig constructs; assay type: binding; details: antigen IL-6R, 25° C.
Method: The BIACORE assay (Biacore, Inc, Piscataway, N.J.) determines the affinity of antibodies or DVD-Ig with kinetic measurements of on-rate and off-rate constants. […] All chemicals are obtained from Biacore® AB (Uppsala, Sweden) or otherwise from a different source as described in the text. For example, approximately 5000 RU of goat anti-mouse IgG, (Fcγ), fragment specific polyclonal antibody (Pierce Biotechnology Inc, Rockford, Ill.) diluted in 10 mM sodium acetate (pH 4.5) is directly immobilized across a CM5 research grade biosensor chip using a standard amine coupling kit according to manufacturer's instructions and procedures at 25 μg/ml. Unreacted moieties on the biosensor surface are blocked with ethanolamine. Modified carboxymethyl dextran surface in flowcell 2 and 4 is used as a reaction surface. Unmodified carboxymethyl dextran without goat anti-mouse IgG in flow cell 1 and 3 is used as the reference surface. For kinetic analysis, rate equations derived from the 1:1 Langmuir binding model are fitted simultaneously to association and dissociation phases of all eight injections (using global fit analysis) with the use of Biaevaluation 4.0.1 software. Purified antibodies or DVD-Ig are diluted in HEPES-buffered saline for capture across goat anti-mouse IgG specific reaction surfaces. Antibodies or DVD-Ig to be captured as a ligand (25 μg/ml) are injected over reaction matrices at a flow rate of 5 μl/min. The association and dissociation rate constants, kon (M^−1 s^−1) and koff (s^−1) are determined under a continuous flow rate of 25 μl/min. Rate constants are derived by making kinetic binding measurements at different antigen concentrations ranging from 10-200 nM. The equilibrium dissociation constant (M) of the reaction between antibodies or DVD-Igs and the target antigen is then calculated from the kinetic rate constants by the following formula: KD=koff/kon. Binding is recorded as a function of time and kinetic rate constants are calculated. In this assay, on-rates as fast as 10^6 M^−1 s^−1 and off-rates as slow as 10^−6 s^−1 can be measured.

[2] = tested on: PGE2 / human EP4 receptor in HEK293 Gα16 cells; experiment: EP4 bioassay (Ca++ flux, neutralization of PGE2); assay type: cell-based; details: PGE2 VD in C-terminal position; EP4 bioassay, Ca++ flux; read-out: C-terminal VD PGE2 Neutralization EC50
In short: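 Ca++ flux (FLIPR) in HEK293 Gα16 cells stably expressing human EP4, loaded with Ca++-sensitive dye for 90 min. PGE2, alone or pre-incubated with anti-PGE2 antibody, DVD-Ig or isotype control, was added in FLIPR buffer (HBSS, 20 mM HEPES, 0.1% BSA, 2.5 mM probenecid). EC50 derived from PGE2 dose-response.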

B1: DVD152: DVD-Ig construct listed in Table 4 (antibody)
VH: EVQLQESGPGLVRPSQTLSLTCTVSGYSITSDHAWSWVRQPPGRGLEWIGYISYSGITTYNPSLKSRVTMLRDTSKNQFSLRLSSVTAADTAVYYCARSLARTTAMDYWGQGSLVTVSSASTKGPEVQLVQSGAEVKKPGASVKVSCKASGYTFTKYWLGWVRQAPGQGLEWMGDIYPGYDYTHYNEKFKDRVTLTTDTSTSTAYMELRSLRSDDTAVYYCARSDGSSTYWGQGTLVTVSS
VL: DIQMTQSPSSLSASVGDRVTITCRASQDISSYLNWYQQKPGKAPKLLIYYTSRLHSGVPSRFSGSGSGTDFTFTISSLQPEDIATYYCQQGNTLPYTFGQGTKVEIKRTVAAPDVLMTQTPLSLPVTPGEPASISCTSSQNIVHSNGNTYLEWYLQKPGQSPQLLIYKVSNRFSGVPDRFSGSGSGTDFTLKISRVEAEDVGVYYCFQVSHVPYTFGGGTKVEIKR
[1]
  FACS Geometric Mean N-terminal: 9.13
Target antigen; IL-6R binding by C-terminal domain
  koff: 0.00015 s⁻¹
Target antigen; IL-6R binding by N-terminal domain
  koff: 0.000115 s⁻¹
[2]
  EC50: 0.025 nM
